# In patent US20180112001A1:
# Target: human MUC16 (mucin 16), endogenously expressed on cells (human)
# Experiment: MSD electrochemiluminescence cell binding; RLU ratio OVCAR-3/SK-OV-3; Ab […]; NS = Non-Specific, ratio <2.5-fold
row,Ratio: anti-MUC16 Binding OVCAR-3/SK-OV-3,Substance
1,< 2.5,hIgG1 Isotype Control Antibody
2,< 2.5,mIgG1 Isotype Control Antibody
3,< 2.5,mIgG2a Isotype Control Antibody
